# Measurements from PMC5352143, “Lactoferrin binding protein B – a bi-functional bacterial receptor protein” (PLoS Pathogens, 2017).
# B1: LbpB C-terminal lobe with N-terminal biotin acceptor peptide, fused to MBP (BLI construct) (domain or fragment)
# chain: ENAADTKPALSSGKHTKILDSLKISVDEASDKNPREFAISSMPDFGHPDKLLVEGREIPLVNKEQTIELADGRKTTIRTCCDFLTYVKIGRMQTERPAAKPKAQDEERDEEDTGVDSVEEGEDEIDDEEGTEDAAVKDEGSEEDEAVEGEDEAEEPEEESPTEEGGSGSDGILPAPEAPKGRNIDLFLKGIRTAETDIPKTGEAHYTGTWEARIGKPIQWDNQADKEAAKAVFTVDFGKKSISGTLTEENGVEPAFHIENGKIEGNGFYATARTRENGINLSGNGSTDPKTFQASNLRVEGGFYGPQAEELGGIIFNNDGKSLGITEGTENKVDVEAEVDAEVDVGKQLESEVKHQFGVVFGAKKDMQEVEK
# modifications: biotin on the biotin acceptor peptide
# Biological target: T1, holo human lactoferrin (iron-loaded hLf) (human)
# T1 construct: human lactoferrin, iron-loaded (holo) form; Iron-loaded form; also called holo-hLf; holo-Lf; source: bought: Agennix (named for XL-MS)
# Test: BLI; Octet RED 96; biotinylated MBP-LbpB constructs loaded from crude E. coli extracts on streptavidin sensors; holo-hLf 10-800 nM in 1 X PBS pH 7.4, 0.002% Tween-20, 0.1 mg/mL BSA; steady-state fit, apparent KD
# Settings: one partner purified
binder,measurement,value
B1,Kd,279 ± 15 nM
